Results as given in US20230052369A1 (Zymeworks, published 2023).

B1: v23660 (bispecific antibody, human IgG1, kappa, L234A L235A)
heavy 1: QVQLKESGPGLVAPSQSLSITCTVSGFSLTSYAISWVRQPPGKGLEWLGVIWPGGGTNYNSALKSRLSISKDNSKSQVFLKMNSLQTDDTARYYCARGTGTWYFDVWGAGTTVTVSSASTKGPSVFPLAPSSKSTSGGTAALGCLVKDYFPEPVTVSWNSGALTSGVHTFPAVLQSSGLYSLSSVVTVPSSSLGTQTYICNVNHKPSNTKVDKKVEPKSCDKTHTCPPCPAPEAAGGPSVFLFPPKPKDTLMISRTPEVTCVVVSVSHEDPEVKFNWYVDGVEVHNAKTKPREEQYNSTYRVVSVLTVLHQDWLNGKEYKCKVSNKALPAPIEKTISKAKGQPREPQVYVYPPSRDELTKNQVSLTCLVKGFYPSDIAVEWESNGQPENNYKTTPPVLDSDGSFALVSKLTVDKSRWQQGNVFSCSVMHEALHNHYTQKSLSLSPGGGGGDIVMTQTPASVEAAVGGTVTIKCQASQSIYSSLAWYQQKPGQSPKLLIYDASHLASGVPSRFSGSRYGTEFTLTISGVQCDDAATYYCQGGWYSSAATYVPNTFGGGTEVVVKGGGGSGGGGSGGGGSQEQLVESGGGLVQPEGSLTLTCKASGFTISNNYYMCWVRQAPGKGLEWIACIYGGISGRTYYASWAKGRFTISKTSSTTVTLQMTSLTAADTATYFCVRGYVGTSNLWGPGTLVTVSS
heavy 2: QVQLKESGPGLVAPSQSLSITCTVSGFSLTSYAISWVRQPPGKGLEWLGVIWPGGGTNYNSALKSRLSISKDNSKSQVFLKMNSLQTDDTARYYCARGTGTWYFDVWGAGTTVTVSSASTKGPSVFPLAPSSKSTSGGTAALGCLVKDYFPEPVTVSWNSGALTSGVHTFPAVLQSSGLYSLSSVVTVPSSSLGTQTYICNVNHKPSNTKVDKKVEPKSCDKTHTCPPCPAPEAAGGPSVFLFPPKPKDTLMISRTPEVTCVVVSVSHEDPEVKFNWYVDGVEVHNAKTKPREEQYNSTYRVVSVLTVLHQDWLNGKEYKCKVSNKALPAPIEKTISKAKGQPREPQVYVLPPSRDELTKNQVSLLCLVKGFYPSDIAVEWESNGQPENNYLTWPPVLDSDGSFFLYSKLTVDKSRWQQGNVFSCSVMHEALHNHYTQKSLSLSPG
light: DIQMTQTTSSLSASLGDRVTISCSASQGISNYLNWYQQKPDGTVKLLIYYTSSLHSGVPSRFSGSGSGTDYSLTISNLEPEDIATYYCQQYSDLPWTFGGGTKLEIKRTVAAPSVFIFPPSDEQLKSGTASVVCLLNNFYPREAKVQWKVDNALQSGNSQESVTEQDSKDSTYSLSSTLTLSKADYEKHKVYACEVTHQGLSSPVTKSFNRGEC
notes: also called 6B3 x 8K22 (VLVH) 2x1
B2: v23656 (bispecific antibody, human IgG1, kappa, L234A L235A)
heavy 1: QVQLKESGPGLVAPSQSLSITCTVSGFSLTTYAISWVRQPPGKGLEWLGIIWPGGGTNYNSALKSRLSISKDNSRSQVFLKMNSLQTDDTARYYCARGAGTWYFDVWGAGTTVTVSSASTKGPSVFPLAPSSKSTSGGTAALGCLVKDYFPEPVTVSWNSGALTSGVHTFPAVLQSSGLYSLSSVVTVPSSSLGTQTYICNVNHKPSNTKVDKKVEPKSCDKTHTCPPCPAPEAAGGPSVFLFPPKPKDTLMISRTPEVTCVVVSVSHEDPEVKFNWYVDGVEVHNAKTKPREEQYNSTYRVVSVLTVLHQDWLNGKEYKCKVSNKALPAPIEKTISKAKGQPREPQVYVYPPSRDELTKNQVSLTCLVKGFYPSDIAVEWESNGQPENNYKTTPPVLDSDGSFALVSKLTVDKSRWQQGNVFSCSVMHEALHNHYTQKSLSLSPGGGGGDIVMTQTPASVEAAVGGTVTIKCQASQSIYSSLAWYQQKPGQSPKLLIYDASHLASGVPSRFSGSRYGTEFTLTISGVQCDDAATYYCQGGWYSSAATYVPNTFGGGTEVVVKGGGGSGGGGSGGGGSQEQLVESGGGLVQPEGSLTLTCKASGFTISNNYYMCWVRQAPGKGLEWIACIYGGISGRTYYASWAKGRFTISKTSSTTVTLQMTSLTAADTATYFCVRGYVGTSNLWGPGTLVTVSS
heavy 2: QVQLKESGPGLVAPSQSLSITCTVSGFSLTTYAISWVRQPPGKGLEWLGIIWPGGGTNYNSALKSRLSISKDNSRSQVFLKMNSLQTDDTARYYCARGAGTWYFDVWGAGTTVTVSSASTKGPSVFPLAPSSKSTSGGTAALGCLVKDYFPEPVTVSWNSGALTSGVHTFPAVLQSSGLYSLSSVVTVPSSSLGTQTYICNVNHKPSNTKVDKKVEPKSCDKTHTCPPCPAPEAAGGPSVFLFPPKPKDTLMISRTPEVTCVVVSVSHEDPEVKFNWYVDGVEVHNAKTKPREEQYNSTYRVVSVLTVLHQDWLNGKEYKCKVSNKALPAPIEKTISKAKGQPREPQVYVLPPSRDELTKNQVSLLCLVKGFYPSDIAVEWESNGQPENNYLTWPPVLDSDGSFFLYSKLTVDKSRWQQGNVFSCSVMHEALHNHYTQKSLSLSPG
light: DIQMTQSTSSLSASVGDRVTISCSASQGISNYLNWYQQKPDGTVKLLIYYTSSLHSGVPSRFSGSGSGTDYSLTISNLEPEDIATYYCQQYSKFPWTFGGGTKLEIKRTVAAPSVFIFPPSDEQLKSGTASVVCLLNNFYPREAKVQWKVDNALQSGNSQESVTEQDSKDSTYSLSSTLTLSKADYEKHKVYACEVTHQGLSSPVTKSFNRGEC
notes: Two 4-1BB Fabs, one FRα scFv at the C-terminus of one heavy chain; also called 1C8 x 8K22 (VLVH) 2x1
B3: v23662 (bispecific antibody, human IgG1, kappa, L234A L235A)
heavy 1: QVQLKQSGPGLVQPSQSLSITCTVSGFSLTSYGVHWVRQSPGKGLEWLGVIWSGGSTDYNAAFISRLSISKDNSKSQVFFKMNSLQADDTAIYYCARNPLTATVMDYWGQGTSVTVSSASTKGPSVFPLAPSSKSTSGGTAALGCLVKDYFPEPVTVSWNSGALTSGVHTFPAVLQSSGLYSLSSVVTVPSSSLGTQTYICNVNHKPSNTKVDKKVEPKSCDKTHTCPPCPAPEAAGGPSVFLFPPKPKDTLMISRTPEVTCVVVSVSHEDPEVKFNWYVDGVEVHNAKTKPREEQYNSTYRVVSVLTVLHQDWLNGKEYKCKVSNKALPAPIEKTISKAKGQPREPQVYVYPPSRDELTKNQVSLTCLVKGFYPSDIAVEWESNGQPENNYKTTPPVLDSDGSFALVSKLTVDKSRWQQGNVFSCSVMHEALHNHYTQKSLSLSPGGGGGDIVMTQTPSSVSAAVGGTVTIKCQASQTIGSSLAWYQQKPGQPPKLLIYRASTLASGVSSRFRGSGSGTEYTLTISDLECADAATYYCQWTDYGYIYIWAFGGGTEVVVKGGGGSGGGGSGGGGSQEQLVESGGGLVQPEGSLTLTCTASKFSFSSLYYMCWVRQAPGKGLEWIACVYGGSSGNTYYASWAKGRFTISKASSTTVTLQLTSLTAADTATYFCARFDVDGSGFNLWGPGTLVTVSS
heavy 2: QVQLKQSGPGLVQPSQSLSITCTVSGFSLTSYGVHWVRQSPGKGLEWLGVIWSGGSTDYNAAFISRLSISKDNSKSQVFFKMNSLQADDTAIYYCARNPLTATVMDYWGQGTSVTVSSASTKGPSVFPLAPSSKSTSGGTAALGCLVKDYFPEPVTVSWNSGALTSGVHTFPAVLQSSGLYSLSSVVTVPSSSLGTQTYICNVNHKPSNTKVDKKVEPKSCDKTHTCPPCPAPEAAGGPSVFLFPPKPKDTLMISRTPEVTCVVVSVSHEDPEVKFNWYVDGVEVHNAKTKPREEQYNSTYRVVSVLTVLHQDWLNGKEYKCKVSNKALPAPIEKTISKAKGQPREPQVYVLPPSRDELTKNQVSLLCLVKGFYPSDIAVEWESNGQPENNYLTWPPVLDSDGSFFLYSKLTVDKSRWQQGNVFSCSVMHEALHNHYTQKSLSLSPG
light: DIVMTQSQKFMSTSVGDRVSVTCKASQNVGTNVAWYQQKPGQSRTVLIYSASYRHSGVPDRFTGSGSGTDFTLTISNVQSEDLAEYFCQQYNSYPLTFGTGTKLELKRTVAAPSVFIFPPSDEQLKSGTASVVCLLNNFYPREAKVQWKVDNALQSGNSQESVTEQDSKDSTYSLSSTLTLSKADYEKHKVYACEVTHQGLSSPVTKSFNRGEC
notes: also called 2E8 x 1H06 (VLVH) 2x1
B4: v23651 (bispecific antibody, human IgG1, kappa, L234A L235A)
heavy 1: QVQLKESGPGLVAPSQSLSITCTVSGFSLTTYAISWVRQPPGKGLEWLGIIWPGGGTNYNSALKSRLSISKDNSRSQVFLKMNSLQTDDTARYYCARGAGTWYFDVWGAGTTVTVSSASTKGPSVFPLAPSSKSTSGGTAALGCLVKDYFPEPVTVSWNSGALTSGVHTFPAVLQSSGLYSLSSVVTVPSSSLGTQTYICNVNHKPSNTKVDKKVEPKSCDKTHTCPPCPAPEAAGGPSVFLFPPKPKDTLMISRTPEVTCVVVSVSHEDPEVKFNWYVDGVEVHNAKTKPREEQYNSTYRVVSVLTVLHQDWLNGKEYKCKVSNKALPAPIEKTISKAKGQPREPQVYVYPPSRDELTKNQVSLTCLVKGFYPSDIAVEWESNGQPENNYKTTPPVLDSDGSFALVSKLTVDKSRWQQGNVFSCSVMHEALHNHYTQKSLSLSPGGGGGQVQLVQSGAEVVKPGASVKISCKASGYTFTGYFMNWVKQSPGQSLEWIGRIHPYDGDTFYNQKFQGKATLTVDKSSNTAHMELLSLTSEDFAVYYCTRYDGSRAMDYWGQGTTVTVSSGGGGSGGGGSGGGGSDIVLTQSPLSLAVSLGQPAIISCKASQSVSFAGTSLMHWYHQKPGQQPRLLIYRASNLEAGVPDRFSGSGSKTDFTLTISPVEAEDAATYYCQQSREYPYTFGGGTKLEIK
heavy 2: QVQLKESGPGLVAPSQSLSITCTVSGFSLTTYAISWVRQPPGKGLEWLGIIWPGGGTNYNSALKSRLSISKDNSRSQVFLKMNSLQTDDTARYYCARGAGTWYFDVWGAGTTVTVSSASTKGPSVFPLAPSSKSTSGGTAALGCLVKDYFPEPVTVSWNSGALTSGVHTFPAVLQSSGLYSLSSVVTVPSSSLGTQTYICNVNHKPSNTKVDKKVEPKSCDKTHTCPPCPAPEAAGGPSVFLFPPKPKDTLMISRTPEVTCVVVSVSHEDPEVKFNWYVDGVEVHNAKTKPREEQYNSTYRVVSVLTVLHQDWLNGKEYKCKVSNKALPAPIEKTISKAKGQPREPQVYVLPPSRDELTKNQVSLLCLVKGFYPSDIAVEWESNGQPENNYLTWPPVLDSDGSFFLYSKLTVDKSRWQQGNVFSCSVMHEALHNHYTQKSLSLSPG
light: DIQMTQSTSSLSASVGDRVTISCSASQGISNYLNWYQQKPDGTVKLLIYYTSSLHSGVPSRFSGSGSGTDYSLTISNLEPEDIATYYCQQYSKFPWTFGGGTKLEIKRTVAAPSVFIFPPSDEQLKSGTASVVCLLNNFYPREAKVQWKVDNALQSGNSQESVTEQDSKDSTYSLSSTLTLSKADYEKHKVYACEVTHQGLSSPVTKSFNRGEC
notes: also called 1C8 x Mirvetuximab (scFv) 2x1

Columns and labels:
[1] = biological target: T1, full-length human FRα, on 293E cells (human, UniProt P15328 25-234); assay: flow cytometry, 293E cells expressing FRα
T1 construct: also called folate receptor alpha; FOLR1
Description: Antibodies were diluted in 50 μl FB (PBS 2% FCS) 1:3 from stock in wells of a 96 V-well plate, and cells added on top. The cells were then left on ice for 30 minutes for the antibodies to bind. The cells were then washed twice in FB, and incubated in 50 μl FB containing 2 μg/ml goat anti-human Alexa647 antibody (Jackson Immunoresearch). The cells were then left on ice for a further 20 minutes, washed twice in FB, resuspended in 100 μl FB and analyzed on a BD Fortessa™ X20. The subsequent data files were analyzed using FlowJo™ and Prism 7 (GraphPad).

[2] = biological target: T2, purified human monomeric 4-1BB (human, UniProt Q07011 24-186); assay: SPR, Ab captured, monomeric 4-1BB injected
T2 construct: the assay used the 4-1BB part released by Factor Xa with the Fc removed; also called h4-1BB; human 4-1BB
T2 sequence (Q07011 other isoform, or with tags, fused parts or gaps limits assumed): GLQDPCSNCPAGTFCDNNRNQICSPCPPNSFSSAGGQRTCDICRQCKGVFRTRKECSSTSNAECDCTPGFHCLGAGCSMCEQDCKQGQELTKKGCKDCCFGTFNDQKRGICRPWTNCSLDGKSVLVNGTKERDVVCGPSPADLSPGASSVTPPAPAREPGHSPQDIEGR
Description: The anti-human Fc surface was prepared on a CMS Series S sensorchip by standard amine coupling methods as described by the manufacturer (GE Healthcare). Briefly, immediately after EDC/NHS activation, a 25 μg/mL solution of anti-human Fc in 10 mM NaOAc pH 4.5 was injected at a flow rate of 10 μL/min for 420 s until approximately 2000 resonance units (RUs) were immobilized on all four flow cells. The remaining active groups were quenched by a 420 s injection of 1M ethanolamine at 10 μL/min.
Antibodies for analysis were captured onto the anti-Fc surface by injecting 5 μg/mL solutions at a flow rate of 10 μL/min for 60 s. Using single-cycle kinetics, five concentrations of a two-fold dilution series of 4-1BB starting at 40 nM (for both supernatant and purified antibody runs) with a blank buffer control were sequentially injected at 40 μL/min for 180 s with a 600 s dissociation phase, resulting in a set of sensorgrams with a buffer blank reference. Experiments were performed at a constant temperature of 25° C. The anti-human Fc surfaces were regenerated to prepare for the next injection cycle by one pulse of 10 mM Glycine/HCl pH 1.5 for 120 s at 40 μL/min. Blank-subtracted sensorgrams were analyzed using Biacore™ T200 Evaluation Software v3.0. The blank-subtracted sensorgrams were then fit to the 1:1 Langmuir binding model.
Variants purified by SEC were assessed for binding to human 4-1BB.

T1 sequence (P15328 25-234 limits assumed): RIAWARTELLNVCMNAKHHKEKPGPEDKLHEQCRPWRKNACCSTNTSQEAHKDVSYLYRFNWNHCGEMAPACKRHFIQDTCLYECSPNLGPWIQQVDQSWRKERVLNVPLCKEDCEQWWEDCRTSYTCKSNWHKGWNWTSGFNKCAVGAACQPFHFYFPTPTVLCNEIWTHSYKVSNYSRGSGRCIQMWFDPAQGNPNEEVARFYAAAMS

| Binder | binding result [1] | Kd [2] |
| --- | --- | --- |
| B1 | binds | 364 nM |
| B2 | binds | 480 nM |
| B3 | – | 155 nM |
| B4 | binds | – |
